Experimental findings from the DeepSol protein solubility set are described below.

A short description of this series: soluble on expression in E. coli; label from the status in PepcDB or PDB records.
As to “MQVPQDGEDLAGQPWYHGLLSRQKAEALLQQNGDFLVRASGSRGGNPVISCRWRGSALHFEVFRVALRPRPGRPTALFQLEDEQFPSIPALVHSYMTGRRPLSQATGAVVSRPVTWQGPLRRSFSEDTLMDGPARIEPLRARKWSNSQPADLAHMGRSREDPAGMEASTMPISALPRTSSDPVLLKAPAPLGTVADSLRASDGQLQAKAPTKPPRTPSFELPDASERPPTYCELVPRVPSVQGTSPSQSCPEPEAPWWEAEEDEEEENRCFTRPQAEISFCPHDAPSCLLGPQNRPLEPQVLHTLRGLFLEHHPGSTALHLLLVDCQATGLLGVTRDQRGNMGVSSGLELLTLPHGHHLRLELLERHQTLALAGALAVLGCSGPLEERAAALRGLVELALALRPGAAGDLPGLAAVMGALLMPQVSRLEHTWRQLRRSHTEAALAFEQELKPLMRALDEGAGPCDPGEVALPHVAPMVRLLEGEEVAGPLDESCERLLRTLHGARHMVRDAPKFRKVAAQRLRGFRPNPELREALTTGFVRRLLWGSRGAGAPRAERFEKFQRVLGVLSQRLEPDR”, the “soluble on expression in E. coli” value was “soluble”. With “LNAAMNLKREFVHRVQRFVVNPIGRQLPMTMLETIGRKTGQPRRTAVGGRVVDNQFWMVSEHGEHSDYVYNIKANPAVRVRIGGRWRSGTAYLLPDDDPRQRLRGLPRLNSAGVRAMGTDLLTIRVDLD”, the “soluble on expression in E. coli” value is “soluble”. On to “MHRPITAGHTTSRLILDQLKQISRTPSESSVQSALSQQASMSSPVLERSKSAPALLTAAQRTMLAQVGACNSHLTSDENMAINELRLHKPRLPKDTWFFTDPNKDPDDVVTYTLGKQLQAEGFVHITDVVATLGDAEVRSQRAEMAKGVFNKLGLHDVHVSRGRDYAMNSLQSKEHAKFLLEGHALRAGPGEIHRDSLQDMSRRLARAPHGVGIVVIAGMSDINALITTCPDMVRERVDDITIMGGVEPLKDADGFVQPDARAYNNATDMDAARSLYRKAQELGIPLRIVTKEAAYKTAVSPSFYEGIAGSGHPVGHYLRDVQKSALKGLWEGIQAGLLPGLDDSWFFRTFMPNAQIEAAQLDKNKESSFEDIWPKVTKLNLYDPLTLLASVPGAAKLLFKPKAIHTEGFGVVEQVGPDDVTHPEKAKLLMSALAKSALVQSTVAPD”, for which the “soluble on expression in E. coli” value is on record as “not soluble”. For “MGSDKIHHHHHHMFMKNLYIDPDITKASTISSEFYTSTEWFEITKEKIFSKTWQFCISTEELTTNRQLIPFTLLPGYLEEPLLFAKDELGTIRCLSNVCTHRGKILIEEPCVAHKIKCSYHGRRFNFCGELLHMPEFELTKDFPSNNDNLSQISTGILEPFLFASLSPVVPFHEVFAEIKERLFWLPMEKMRLDKEKCKDYVVKSHWALYCENYLEALHIPFVHPSLRKVIDCNTYTTELFRYCNLQLALASPDEVSFDLPKGAQDYGKQVAAYYFWIFPNTMLNFYPWGCSVNVVKPLSPELTQVSFLSFVLDESKFGKGAGGALDQVEQEDERVVESVQRGIKSRYYDIGRFSPTKEQGTHHFQRLLCEFLND”, the “soluble on expression in E. coli” value is listed as “not soluble”. With “GSHMNGEPDIAQLKGLSPSQRQAYAVQLKNRGNHFFTAKNFNEAIKYYQYAIELDPNEPVFYSNISACYISTGDLEKVIEFTTKALEIKPDHSKALLRRASANESLGNFTDAMFDLSVLSLNGDFDGASIEPMLERNLNKQAMKVLNENLSKDEGRGSQVLPSNTSLASFFGIFDSHLEVSSVNTSSNYDTAYALLSDALQRLYSATDEGYLVANDLLTKSTDMYHSLLSANTVDDPLRENAALALCYTGIFHFLKNNLLDAQVLLQESINLHPTPNSYIFLALTLADKENSQEFFKFFQKAVDLNPEYPPTYYHRGQMYFILQDYKNAKEDFQKAQSLNPENVYPYIQLACLLYKQGKFTESEAFFNETKLKFPTLPEVPTFFAEILTDRGDFDTAIKQYDIAKRLEEVQEKIHVGIGPLIGKATILARQSSQDPTQLDEEKFNAAIKLLTKACELDPRSEQAKIGLAQLKLQMEKIDEAIELFEDSAILARTMDEKLQATTFAEAAKIQKRLRADPIISAKMELTLARYRAKGML”, the “soluble on expression in E. coli” value was “soluble”. The result for “MSLIYHRIAVNVPLSDGLLTYSHSDPLPPGTRVLVPFRNKTVVGMVWETDIAPDMDMARILSVQTAFVEEKPLPESWRDLLAFTSRYYHYPTGQAVFAALPQGLKETRAVEMPQPPLFYALNEAGRAQTPPPARFNKKAALWDALLSGGMTMAALKQVNAQAAKLIEDWAEQGWIETTEAAKPVLRSYHGQASHSEFVLNADQQQASDEIQTAFGSFQPFLLYGITGSGKTEVYFDAMAKVLAQGRQVLFLLPEINLTPQLLKRVENRFADVPTAVLHSQMAAGKRTQDYLRAMLGQAKLVIGTRLAVFTPMDDVGLIVVDEEHDGSFKQDNELRYHARDLAVWRAKQGGCPIILGSATPSLESWHKAQSGAYRLLQLTERAHTAAQLPQVDILNVGRLKLDNGFSPQALQLLKQNFEAGGMSLVYLNRRGFAPALFCGDCGYTFGCPNCSAKMVLHQRARQLRCHHCDHREPIPYKCPDCGNQDLTAVGHGTQRVEETLRTFLPKAAVVRVDRDSTAHKNDWADLYRRIADNKIDILVGTQMLAKGHDFARLNLVIVLNADGSLYSADFRAPERLFAELMQVSGRAGRADKPGKVLIQTQLPEHPVFAAVKAQDYAVFAENELNERQMFAMPPFGFQTAVRADAPRVADAMEFLNAAKETLAPLLPESVSQFGAAPMLMVRLAERERAQIFLESPSRQDLHRAVSLWAQVLQQNRDGKIRWSVDVDPQEAEGHHHHHH” reads “not soluble”; that for “MTSVSGCGSVSLITNRSAFLGNGLQHRAVFLKPWSSSSLQSRSMVVEAKTKTSSEDRIARHSRIRKKVNGTTERPRLCVFRSNKHLYVQVIDDTKMHTLASASTKQKPISEEFDYTSGPTIEVAKKVGEVIAKSCLEKGITKVAFDRGGYPYHGRIEALAAAAREHGLQF”, “not soluble”. For “MAHAGRTGYDNREIVMKYIHYKLSQRGYEWDAGDDVEENRTEAPEGTESEVVHLTLRQAGDDFSRRYRRDFAEMSSQLHLTPFTARGRFATVVEELFRDGVNWGRIVAFFEFGGVMCVESVNREMSPLVDNIALWMTEYLNRHLHTWIQDNGGWDAFVELYGPSMR”, the “soluble on expression in E. coli” value is “soluble”. Turning to “MGSDKIHHHHHHMTHEEHHAAKTLGIGKAIAVLTSGGDAQGMNAAVRAVVRVGIFTGARVFFVHEGYQGLVDGGDHIKEATWESVSMMLQLGGTVIGSARCKDFREREGRLRAAYNLVKRGITNLCVIGGDGSLTGADTFRSEWSDLLSDLQKAGKITDEEATKSSYLNIVGLVGSIDNDFCGTDMTIGTDSALHRIMEIVDAITTTAQSHQRTFVLEVMGRHCGYLALVTSLSCGADWVFIPECPPDDDWEEHLCRRLSETRTRGSRLNIIIVAEGAIDKNGKPITSEDIKNLVVKRLGYDTRVTVLGHVQRGGTPSAFDRILGSRMGVEAVMALLEGTPDTPACVVSLSGNQAVRLPLMECVQVTKDVTKAMDEKKFDEALKLRGRSFMNNWEVYKLLAHVRPPVSKSGSHTVAVMNVGAPAAGMNAAVRSTVRIGLIQGNRVLVVHDGFEGLAKGQIEEAGWSYVGGWTGQGGSKLGTKRTLPKKSFEQISANITKFNIQGLVIIGGFEAYTGGLELMEGRKQFDELCIPFVVIPATVSNNVPGSDFSVGADTALNTICTTCDRIKQSAAGTKRRVFIIETMGGYCGYLATMAGLAAGADAAYIFEEPFTIRDLQANVEHLVQKMKTTVKRGLVLRNEKCNENYTTDFIFNLYSEEGKGIFDSRKNVLGHMQQGGSPTPFDRNFATKMGAKAMNWMSGKIKESYRNGRIFANTPDSGCVLGMRKRALVFQPVAELKDQTDFEHRIPKEQWWLKLRPILKILAKYEIDLDTSDHAHLEHITRKRSGEAAV”, the “soluble on expression in E. coli” value is reported as “not soluble”.
